Experiments:
rhesus CD11a [1] = target: T1, rhesus CD11a (rhesus, UniProt H9Z8N3 26-1169); experiment: binding to rhesus peripheral blood lymphocytes; end assigned by the printed EC50s
T1 construct: whole, on cells; also called rhCD11a
T1 sequence: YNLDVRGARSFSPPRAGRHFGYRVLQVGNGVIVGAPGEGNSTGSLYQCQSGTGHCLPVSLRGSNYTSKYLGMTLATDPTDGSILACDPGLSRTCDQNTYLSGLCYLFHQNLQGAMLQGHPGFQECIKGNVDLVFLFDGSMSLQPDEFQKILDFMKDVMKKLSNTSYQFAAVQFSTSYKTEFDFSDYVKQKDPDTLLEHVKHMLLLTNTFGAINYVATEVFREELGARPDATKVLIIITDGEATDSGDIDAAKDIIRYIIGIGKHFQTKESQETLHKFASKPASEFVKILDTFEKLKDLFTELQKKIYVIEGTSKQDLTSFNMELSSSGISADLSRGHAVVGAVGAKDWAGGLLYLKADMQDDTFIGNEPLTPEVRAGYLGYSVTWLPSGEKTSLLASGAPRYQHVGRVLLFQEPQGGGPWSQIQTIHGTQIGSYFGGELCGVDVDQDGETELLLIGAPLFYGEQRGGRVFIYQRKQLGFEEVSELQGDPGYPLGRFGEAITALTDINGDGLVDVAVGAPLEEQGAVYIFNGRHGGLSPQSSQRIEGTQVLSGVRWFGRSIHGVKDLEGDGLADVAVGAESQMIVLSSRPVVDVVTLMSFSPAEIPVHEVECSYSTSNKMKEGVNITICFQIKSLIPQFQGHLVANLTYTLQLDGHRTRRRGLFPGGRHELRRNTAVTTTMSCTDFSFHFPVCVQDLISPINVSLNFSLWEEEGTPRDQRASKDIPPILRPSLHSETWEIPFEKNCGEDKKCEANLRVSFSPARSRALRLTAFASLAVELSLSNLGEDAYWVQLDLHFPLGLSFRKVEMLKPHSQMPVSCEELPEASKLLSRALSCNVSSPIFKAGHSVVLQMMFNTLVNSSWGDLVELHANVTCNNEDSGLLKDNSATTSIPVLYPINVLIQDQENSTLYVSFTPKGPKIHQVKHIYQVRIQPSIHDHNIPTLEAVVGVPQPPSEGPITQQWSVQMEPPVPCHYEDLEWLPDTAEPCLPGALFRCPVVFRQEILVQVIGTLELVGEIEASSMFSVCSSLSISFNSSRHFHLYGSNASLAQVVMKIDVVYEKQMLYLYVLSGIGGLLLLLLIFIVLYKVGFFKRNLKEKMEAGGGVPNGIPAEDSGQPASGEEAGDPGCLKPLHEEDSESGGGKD

rhesus CD11a [2] = target: T1, rhesus CD11a; experiment: cell-based or functional assay
rhesus CD11a [3] = target: T1, rhesus CD11a; experiment: rhesus EC50 of the variant against human EC50 of HuIgG1; end assigned by the printed EC50s
rhesus CD11a [4] = target: T1, rhesus CD11a; experiment: saturation binding, Kd(app) compared
Experimental: Antibody affinities were determined by saturation binding using either peripheral blood mononuclear cells (murine MHM24 and HuIgG1) or rhesus leukocytes (MHM23, RhIgG1). In each assay, a radiolabeled antibody was serially diluted in HBSS-0.2% gelatin in quadruplicate. Nonspecific binding was determined by the addition of 500 nM final concentration of homologous unlabeled antibody in duplicate through the serial dilution. Human lymphocytes or rhesus leukocytes were added to the plates in a volume of 170 μl per well. Plates were incubated for 2 hr at room temperature on an orbital plate shaker. After incubation, cells were harvested using a SKATRON™ cell harvester (Lier, Norway) and washed 10 times with PBS containing 0.25% gelatin and 0.1% sodium azide. Samples were then counted for 1 min in an LBK Wallac GammaMaster gamma counter (Gaithersburg, Md.). Data was transformed from counts per minute to nanomolarity and four-parameter curve-fitting of saturation plots (bound versus total) was then performed to determine Kd (app) values.

[5] = target: T2, rhesus-human chimeric CD11a (human (I-domain mutated to rhesus), UniProt P20701 26-1170); experiment: cell-based or functional assay
T2 sequence (looked up): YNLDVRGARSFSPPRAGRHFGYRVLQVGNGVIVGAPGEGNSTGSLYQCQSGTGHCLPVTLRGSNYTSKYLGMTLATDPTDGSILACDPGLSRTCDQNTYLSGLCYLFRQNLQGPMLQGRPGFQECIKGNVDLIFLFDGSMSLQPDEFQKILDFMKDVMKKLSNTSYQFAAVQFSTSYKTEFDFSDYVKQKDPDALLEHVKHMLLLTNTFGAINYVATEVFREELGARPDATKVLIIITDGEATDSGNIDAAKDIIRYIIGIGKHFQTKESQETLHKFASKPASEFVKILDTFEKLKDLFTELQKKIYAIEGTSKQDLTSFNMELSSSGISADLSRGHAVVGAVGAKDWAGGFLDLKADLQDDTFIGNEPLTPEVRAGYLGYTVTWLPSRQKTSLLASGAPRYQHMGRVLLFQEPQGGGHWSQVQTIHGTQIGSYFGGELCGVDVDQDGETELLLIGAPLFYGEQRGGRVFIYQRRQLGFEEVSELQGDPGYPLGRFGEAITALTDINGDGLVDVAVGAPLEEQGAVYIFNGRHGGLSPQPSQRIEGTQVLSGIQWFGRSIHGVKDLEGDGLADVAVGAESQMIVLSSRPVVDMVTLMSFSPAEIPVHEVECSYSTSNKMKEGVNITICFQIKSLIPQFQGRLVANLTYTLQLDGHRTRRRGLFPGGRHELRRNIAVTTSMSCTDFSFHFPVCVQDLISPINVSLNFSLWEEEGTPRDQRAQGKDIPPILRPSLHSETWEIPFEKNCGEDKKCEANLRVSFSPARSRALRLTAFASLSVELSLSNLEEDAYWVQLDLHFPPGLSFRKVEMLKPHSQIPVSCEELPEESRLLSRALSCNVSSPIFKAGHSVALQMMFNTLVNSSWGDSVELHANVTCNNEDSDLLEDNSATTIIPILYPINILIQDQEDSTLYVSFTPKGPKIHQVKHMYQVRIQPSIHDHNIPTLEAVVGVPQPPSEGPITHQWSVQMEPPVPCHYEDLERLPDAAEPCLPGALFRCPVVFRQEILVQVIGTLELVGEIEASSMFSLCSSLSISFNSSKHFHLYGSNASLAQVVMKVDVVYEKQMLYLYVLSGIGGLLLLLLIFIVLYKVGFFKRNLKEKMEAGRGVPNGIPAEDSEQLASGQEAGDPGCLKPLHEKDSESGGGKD

rhesus CD11a [6] = target: T1, rhesus CD11a; experiment: cell-based or functional assay; remark: listed apart in the source
[7] = target: T2, rhesus-human chimeric CD11a; experiment: cell-based or functional assay; remark: listed apart in the source
rhesus CD11a [8] = target: T1, rhesus CD11a; experiment: cell-based or functional assay; remark: listed apart in the source

B1: rhesus-binding MHM24 RhIgG1 (antibody, V domains shown)
VH: EVQLVESGGGLVQPGGSLRLSCAASGYSFTGHWMNWVRQAPGKGLEWVGMIAPASSSTRYNQKFKDRFTISVDKSKNTLYLQMNSLRAEDTAVYYCARGIYFYGTTYFDYWGQGTLVTVSS
VL: DIQMTQSPSSLSASVGDRVTITCRASKTISKYLAWYQQKPGKAPKLLIYSGSTLQSGVPSRFSGSGSGTDFTLTISSLQPEDFATYYCQQHNEYPLTFGQGTKVEIKR
notes: HuIgG1 variant, human IgG1; also called H2C12; rhesusized antibody
B1 was tested, and the “fold improvement over the EC50 of HuIgG1 for rhesus CD11a” value (rhesus CD11a [1]) was 240 to 415 fold, the “IC50 Value (nM), rhesus mixed lymphocyte response” value (rhesus CD11a [2]) was 23.4 nM and the “fold weaker than the EC50 of HuIgG1 for human CD11a” value (rhesus CD11a [3]) was 3 to 5 fold. For the same binder, the “fold down from the Kd of HuIgG1 for human CD11a” value (rhesus CD11a [4]) was roughly 26 fold, the “IC50 Value (nM), Rh/HuCD11a:HuK cell adhesion” value [5] was 4.9 nM and the “IC50 Value (nM), RhLy:HuICAM cell adhesion” value (rhesus CD11a [6]) was 5.3 nM. The “IC50 Value (nM), RhLy:HuK cell adhesion” value (rhesus CD11a [6]) was 119 nM, the “fold down from MHM23, Rh/HuCD11a:HuK adhesion” value [7] was 4 fold and the “fold less efficacious than MHM23, RhLy:HuICAM adhesion” value (rhesus CD11a [8]) was 4 fold. The “fold less efficacious than MHM23, RhLy:HuK adhesion” value (rhesus CD11a [8]) was 74 fold.

— US20100136005A1 (Genentech, published 2010)
